Experimental data from PMC10987633, “Structural basis for RAD18 regulation by MAGEA4 and its implications for RING ubiquitin ligase binding by MAGE family proteins” (The EMBO Journal, 2024).

T1: full-length MAGEA4 M161D (human, UniProt P43358 1-317, M161D)
T1 construct: MAGEA4, human, Uniprot P43358, full length, with M161D; source: E. coli BL21star, purified (TALON, SEC)
T1 sequence (looked up): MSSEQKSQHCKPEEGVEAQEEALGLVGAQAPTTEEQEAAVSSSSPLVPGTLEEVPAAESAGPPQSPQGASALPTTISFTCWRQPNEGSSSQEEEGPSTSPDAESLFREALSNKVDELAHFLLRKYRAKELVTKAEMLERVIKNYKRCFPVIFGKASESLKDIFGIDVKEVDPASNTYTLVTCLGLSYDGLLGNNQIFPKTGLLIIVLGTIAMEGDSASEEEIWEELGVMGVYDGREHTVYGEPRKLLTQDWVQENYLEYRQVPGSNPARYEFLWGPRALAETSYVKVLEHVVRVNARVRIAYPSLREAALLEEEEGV

B1: full-length MAGEA4 wild type (purified) (natural protein, human, UniProt P43358 1-317, looked up)
chain: MSSEQKSQHCKPEEGVEAQEEALGLVGAQAPTTEEQEAAVSSSSPLVPGTLEEVPAAESAGPPQSPQGASALPTTISFTCWRQPNEGSSSQEEEGPSTSPDAESLFREALSNKVDELAHFLLRKYRAKELVTKAEMLERVIKNYKRCFPVIFGKASESLKMIFGIDVKEVDPASNTYTLVTCLGLSYDGLLGNNQIFPKTGLLIIVLGTIAMEGDSASEEEIWEELGVMGVYDGREHTVYGEPRKLLTQDWVQENYLEYRQVPGSNPARYEFLWGPRALAETSYVKVLEHVVRVNARVRIAYPSLREAALLEEEEGV
notes: MAGEA4, human, Uniprot P43358, full length; Cloned into PET15C; No removal of the His tag is described; the diGly search database lists 'His-tagged MAGEA4'; also called MAGEA4 WT; FL MAGEA4; source: E. coli BL21star, purified (TALON, SEC)

How the values were obtained:
Settings in all cases: both partners purified
[1] = target: RAD18/RAD6 complex (purified) (human, UniProt Q9NS91 1-495; P63146 1-152, 2:1 RAD18:RAD6 asymmetric dimer as stated; Zn2+ bound (RING, zinc finger); RAD6 paralogue not given, UBE2B inferred from 2YBF); experiment: mass photometry; OneMP mass photometer, SEC buffer; RAD18/RAD6, and RAD18/RAD6/MAGEA4 first cross-linked with BS3 (30 min on ice) and separated on an S200 3.2/300 column, peak fraction measured
RAD18/RAD6 complex (purified), sequence (Q9NS91 whole entry, chain 1 of 2): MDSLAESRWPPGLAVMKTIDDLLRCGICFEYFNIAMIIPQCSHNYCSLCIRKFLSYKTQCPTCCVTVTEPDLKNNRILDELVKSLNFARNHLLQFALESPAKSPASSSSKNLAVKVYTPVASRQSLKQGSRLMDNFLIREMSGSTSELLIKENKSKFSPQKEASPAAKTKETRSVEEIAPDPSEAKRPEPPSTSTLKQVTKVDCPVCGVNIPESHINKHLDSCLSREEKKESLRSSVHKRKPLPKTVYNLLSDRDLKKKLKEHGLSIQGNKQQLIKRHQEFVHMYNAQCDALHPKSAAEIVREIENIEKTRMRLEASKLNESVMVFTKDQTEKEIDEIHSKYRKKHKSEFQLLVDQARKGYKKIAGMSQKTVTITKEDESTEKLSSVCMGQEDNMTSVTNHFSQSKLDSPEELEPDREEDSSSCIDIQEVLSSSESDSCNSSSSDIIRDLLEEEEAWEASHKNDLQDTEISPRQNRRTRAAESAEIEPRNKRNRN
RAD18/RAD6 complex (purified), sequence (B2R503 whole entry, chain 2 of 2, further chain): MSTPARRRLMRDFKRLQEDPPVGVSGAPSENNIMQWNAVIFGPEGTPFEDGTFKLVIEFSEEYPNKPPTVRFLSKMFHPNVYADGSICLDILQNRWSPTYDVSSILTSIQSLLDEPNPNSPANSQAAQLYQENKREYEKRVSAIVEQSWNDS

[2] = target: T2, His-tagged full-length RAD18 wild type (human, UniProt Q9NS91 1-495); experiment: cross-linking; XL-MS of RAD18/RAD6 incubated with 5x molar excess of full-length MAGEA4 for 1 h at 4 °C before BS3; trypsin, LC-MS/MS
T2 construct: RAD18, RING E3 ubiquitin ligase, human, Uniprot Q9NS91, residues 1-495, full length; Cloned into PET15C; Dimer in the RAD18/RAD6 complex by AUC and mass photometry; also called RAD18 WT; FL RAD18; source: E. coli BL21star; co-expressed with untagged MAGEA4, in cleared lysate (His pull-down); co-expressed with RAD6 and purified as RAD18/RAD6 (TALON, SEC); not shown: His tag, N-terminal, kept
T2 sequence (Q9NS91 whole entry, the tested form may be a part): as the sequence (Q9NS91 whole entry, chain 1 of 2) above

[3] = target: B1; experiment: ITC; RAD18 R6BD peptide at 200 µM titrated into protein at 20 µM; MicroCal ITC200, 25 °C; SEC buffer (100 mM NaCl, 20 mM HEPES pH 7.5, 1 mM TCEP)
full-length MAGEA4 M161D = target: T1, full-length MAGEA4 M161D; experiment: as above
[4] = target: RAD6 wild type (purified alone) (human, UniProt P63146 1-152, paralogue not given; UBE2B chosen because the paper's RAD6/R6BD reference structure 2YBF is UBE2B); experiment: as above

| Binder | stoichiometry N [1] | binding result [2] | Kd [3] [µM] | Kd (full-length MAGEA4 M161D) [µM] | Kd [4] [µM] |
| --- | --- | --- | --- | --- | --- |
| B1 | 1 MAGEA4 per RAD18/RAD6 complex | binds | – | – | – |
| SKYRKKHKSEFQLLVDQARKGYKKIAG (peptide, UniProt Q9NS91 340-366, looked up, also called 27 amino acid peptide corresponding to the RAD18 R6BD; source: synthetic peptide, bought: GenScript) [RAD18 R6BD peptide (residues 340-366)] | – | – | 0.405 | 1.66 | 25.3 |
